These results are taken from patent publication US20200171163A1 (Daiichi Sankyo, published 2020).

To fix the notation:
B1: H02L02 antibody (antibody, human IgG1, kappa, V domains shown)
VH: EVQLVQSGAEVKKPGASVKVSCKASGYTFTRNFMHWVRQAPGQGLEWMGWIYPGDGETEYNQKFQGRVTITADRSTSTAYMELSSLRSEDTAVYFCARGVYGGFAGGYFDFWGQGTLVTVSS
VL: DIQMTQSPSSLSASVGDRVTITCKASQNIYKNLAWYQQKPGKAPKLLIYDANTLQTGVPSRFSGSGSGSDFTLTISSLQPEDFATYFCQQYYSGWAFGQGTKVEIKR
notes: Humanized IgG1/kappa (hH02 + hL02); also called humanized hG019 antibody H02L02
B2: H02L03 antibody (antibody, human IgG1, kappa, V domains shown)
VH: EVQLVQSGAEVKKPGASVKVSCKASGYTFTRNFMHWVRQAPGQGLEWMGWIYPGDGETEYNQKFQGRVTITADRSTSTAYMELSSLRSEDTAVYFCARGVYGGFAGGYFDFWGQGTLVTVSS
VL: DIQMTQSPSSLSASVGDRVTITCKASQNIYKNLAWYQQKLGEGPKLLIYDANTLQTGVPSRFSGSGSGTDFTLTISSLQPEDFATYYCQQYYSGWAFGQGTKVEIKR
notes: Humanized IgG1/kappa (hH02 + hL03); also called humanized hG019 antibody H02L03
B3: H01L02 antibody (antibody, human IgG1, kappa, V domains shown)
VH: EVQLVQSGAEVKKPGASVKVSCKASGYTFTRNFMHWVRQAPGQGLEWMGWIYPGDGETEYAQKFQGRVTITADTSTSTAYMELSSLRSEDTAVYYCARGVYGGFAGGYFDFWGQGTLVTVSS
VL: DIQMTQSPSSLSASVGDRVTITCKASQNIYKNLAWYQQKPGKAPKLLIYDANTLQTGVPSRFSGSGSGSDFTLTISSLQPEDFATYFCQQYYSGWAFGQGTKVEIKR
notes: Humanized IgG1/kappa (hH01 + hL02); also called humanized hG019 antibody H01L02; labeled H01L02
B4: H04L02 antibody (antibody, human IgG1, kappa, V domains shown)
VH: QVQLVQSGAEVKKPGASVKVSCKASGYTFTRNFMHWIRQAPGQGLEWMGWIYPGDGETEYAQKFQGRVTLTADRSTSTAYMELSSLRSEDTAVYYCARGVYGGFAGGYFDFWGQGTLVTVSS
VL: DIQMTQSPSSLSASVGDRVTITCKASQNIYKNLAWYQQKPGKAPKLLIYDANTLQTGVPSRFSGSGSGSDFTLTISSLQPEDFATYFCQQYYSGWAFGQGTKVEIKR
notes: Humanized IgG1/kappa (hH04 + hL02); also called humanized hG019 antibody H04L02
B5: rG055 antibody (antibody, V domains shown)
VH: EVQLQESGPGLVRPSQSLSLSCSVTDYSITSNYWGWIRRFPGNKMEWMGYITYSGYTSYNPSLQSRISITRDTSKNQFFLQLNSVTAEDTATYYCARSINHGGYSYVVDAWGPGASVTVSS
VL: DVQMTHSPSYLAASPGESVSISCKTSKNISNYLVWYQQKPGEAYKLLIYSGSTLQSGTPSRFSGSGSGTDFTLTIRSLEPEDFGLYFCQQYYEKPFTFGSGTKLEIKR
notes: Rat monoclonal purified from hybridoma; also called rat anti-CDH6 monoclonal antibody clone rG055
B6: rG061 antibody (antibody, V domains shown)
VH: EVQLQESGPGLVKPSQSLSLTCSVTGYSITTYYWGWIRKFPGNKMEWMGYISYSGRTSYNPSLKSRMSITRDASKNQFFLQLNSVTTDDTATYYCARSPINHGGYWYFDFWGPGTMVTVSS
VL: DVQMTQSPSYLAASPGESVSISCKATKSISNYLAWYQQKPGEAYKVLIYSGSTLQSGTPSRFSGSGSGTDFTLTIRSLEPEDFGLYSCQQYYEKPLTFGSGTKLEIKR
notes: Rat monoclonal purified from hybridoma; also called rat anti-CDH6 monoclonal antibody clone rG061
B7: rG019 antibody (antibody, V domains shown)
VH: QVQLQQSGAELVKPGSSVKISCKASGYTFTRNFMHWIKQQPGNGLEWIGWIYCGDGETEYNQKFNGKATLTADRSSSTAYMELSRLTSEDSAVYFCARGVYGGFAGGYFDFWGQGVMVTVSS
VL: DIQMTQSPSLLSASVGDRVTLNCKASQNIYKNLAWYQQKLGEGPKLLIYDANTLQTGIPSRFSGSGSGSDFTLTISSLQPEDVATYFCQQYYSGWAFGGVTNLELKRA
notes: Rat monoclonal purified from hybridoma; also called rat anti-CDH6 monoclonal antibody clone rG019
B8: rG056 antibody (antibody, V domains shown)
VH: EVQLQESGPGLVKPSQSLSLTCSVTDYSITTYFWGWIRKFPGNKMEWMGYMSYRGGTSYNPSLKSRISITRDTSKNQFFLQLNSVTTEDTATYYCARCPNYGGHSLVFDYWGQGVMVTVSS
VL: DVQMTQSPSSLAASPGESVSISCRATKSIGIYLAWYQQKPGKTFKLLIYSGSTLQSGTPSRFSGSGSGTDFTLTIRSLEPEDFGLYFCQQFYENPFTFGSGTKLEIRR
notes: Rat monoclonal purified from hybridoma; also called rat anti-CDH6 monoclonal antibody clone rG056

The target of the first experiment is T1, EC3 deletion mutant of human CDH6 (human, UniProt P55285 54-790).
T1 construct: In p3×FLAG-CMV-9; also called EC3-deleted hCDH6
T1 sequence: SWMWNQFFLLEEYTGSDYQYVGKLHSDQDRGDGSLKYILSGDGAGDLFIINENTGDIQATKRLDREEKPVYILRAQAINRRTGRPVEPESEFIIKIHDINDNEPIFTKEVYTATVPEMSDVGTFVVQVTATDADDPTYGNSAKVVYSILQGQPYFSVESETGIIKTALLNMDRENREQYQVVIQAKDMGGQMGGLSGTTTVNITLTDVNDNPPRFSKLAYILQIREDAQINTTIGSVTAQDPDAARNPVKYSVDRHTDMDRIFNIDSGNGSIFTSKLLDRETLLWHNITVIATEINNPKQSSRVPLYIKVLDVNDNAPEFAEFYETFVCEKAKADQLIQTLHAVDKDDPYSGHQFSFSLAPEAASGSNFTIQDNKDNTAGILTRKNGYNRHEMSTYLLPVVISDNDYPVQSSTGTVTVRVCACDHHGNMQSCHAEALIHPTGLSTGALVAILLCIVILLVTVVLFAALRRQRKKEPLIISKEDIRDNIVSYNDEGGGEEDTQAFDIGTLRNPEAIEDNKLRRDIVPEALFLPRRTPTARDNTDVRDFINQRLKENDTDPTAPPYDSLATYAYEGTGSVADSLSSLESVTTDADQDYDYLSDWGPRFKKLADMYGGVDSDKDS
Kind of experiment: flow cytometry; 293α cells transfected with EC3-deleted hCDH6 (open) vs untransfected control cells (shaded); APC anti-human IgG. As to the method:
The cells were cultured overnight under conditions of 37° C. and 5% CO₂, and thereafter, a cell suspension was prepared. […] Thereafter, the cells were suspended by the addition of each of the 4 humanized hG019 antibodies (clone Nos: H01L02, H02L02, H02L03 and H04L02), which had been prepared in Example 5)-5-3, or the anti-CDH6 antibody NOV0712, which had been prepared in Reference Example 1, or human IgG1 (Calbiochem) as a negative control. The cells were left standing at 4° C. for 1 hour. The cells were washed twice with PBS supplemented with 5% FBS, and then suspended by the addition of APC-anti-human IgG goat F(ab′)2 (Jackson ImmunoResearch Laboratories, Inc.) that had been 500-fold diluted with PBS supplemented with 5% FBS. The cells were left standing at 4° C. for 1 hour. The cells were washed twice with PBS supplemented with 5% FBS, followed by detection using a flow cytometer (Canto II; BD Biosciences). The data was analyzed using FlowJo (Tree Star, Inc.). In the histograms of FIGS. 7-1 to 7-6, the abscissa depicts APC fluorescence intensity indicating the amount of the antibody bound, and the ordinate depicts cell count. […] Fluorescence intensity is enhanced when the antibody binds to full-length hCDH6 or each EC domain deletion mutant on cell surface. The human IgG1 control binds to none of the transfected cells.
As for B1, the binding result was “no binding (tested: not given (single concentration))”.
Regarding B2, the binding result is “no binding (tested: not given (single concentration))”.
B3: the binding result was “no binding (tested: not given (single concentration))”.
For the molecule B4, the binding result is “no binding (tested: not given (single concentration))”.

For a further experiment, the target named is T1, EC3 deletion mutant of human CDH6. As to the kind of experiment: flow cytometry; 293α cells transfected with EC3-deleted hCDH6 (open) vs untransfected control cells (shaded); anti-rat IgG-FITC. As to the method: The cells were cultured overnight under conditions of 37° C. and 5% CO₂, and thereafter, a cell suspension was prepared. […] Thereafter, the cells were suspended by the addition of each of the 4 rat anti-CDH6 monoclonal antibodies (clone Nos: rG019, rG055, rG056 and rG061), which had been prepared in Example 1)-7, or rat IgG control (R&D Systems, Inc.) (final concentration: 20 nM). The cells were left standing at 4° C. for 1 hour. The cells were washed twice with PBS supplemented with 5% FBS, and then suspended by the addition of Anti-Rat IgG (whole molecule)-FITC antibody produced in rabbit (Sigma-Aldrich Co. LLC) that had been 50-fold diluted with PBS supplemented with 5% FBS. The cells were left standing at 4° C. for 1 hour. The cells were washed twice with PBS supplemented with 5% FBS, followed by detection using a flow cytometer (Canto II; BD Biosciences). The data was analyzed using FlowJo (Tree Star, Inc.). In the histograms of FIGS. 2-1 to 2-6, the abscissa depicts FITC fluorescence intensity indicating the amount of the antibody bound, and the ordinate depicts cell count. […] Fluorescence intensity is enhanced when the antibody binds to full-length hCDH6 or each EC domain deletion mutant on the surface of cells. The rat IgG control binds to none of the transfected cells.
(In flow cytometry, cells or beads pass a laser one at a time.)
For the molecule B5, the binding result is given as “no binding (tested: 20 nM (single concentration))”.
In the case of B6, the binding result is on record as “no binding (tested: 20 nM (single concentration))”.
With B7, the binding result is “no binding (tested: 20 nM (single concentration))”.
On the same count and under the same terms, under B8 stands “no binding (tested: 20 nM (single concentration))”.
